B1: Keratin, type I cytoskeletal 18 (Homo sapiens), P05783 (parent)
chain: MSFTTRSTFSTNYRSLGSVQAPSYGARPVSSAASVYAGAGGSGSRISVSRSTSFRGGMGSGGLATGIAGGLAGMGGIQNEKETMQSLNDRLASYLDRVRSLETENRRLESKIREHLEKKGPQVRDWSHYFKIIEDLRAQIFANTVDNARIVLQIDNARLAADDFRVKYETELAMRQSVENDIHGLRKVIDDTNITRLQLETEIEALKEELLFMKKNHEEEVKGLQAQIASSGLTVEVDAPKSQDLAKIMADIRAQYDELARKNREELDKYWSQQIEESTTVVTTQSAEVGAAETTLTELRRTVQSLEIDLDSMRNLKASLENSLREVEARYALQMEQLNGILLHLESELAQTRAEGQRQAQEYEALLNIKVKLEAEIATYRRLLEDGEDFNLGDALDSSNSMQTIQKTTTRRIVDGKVVSETNDTKVLRH

Variants of: B1
Details: with becn1_human BECN1, Q14457
becn1_human BECN1, Q14457, sequence (Q14457 whole entry): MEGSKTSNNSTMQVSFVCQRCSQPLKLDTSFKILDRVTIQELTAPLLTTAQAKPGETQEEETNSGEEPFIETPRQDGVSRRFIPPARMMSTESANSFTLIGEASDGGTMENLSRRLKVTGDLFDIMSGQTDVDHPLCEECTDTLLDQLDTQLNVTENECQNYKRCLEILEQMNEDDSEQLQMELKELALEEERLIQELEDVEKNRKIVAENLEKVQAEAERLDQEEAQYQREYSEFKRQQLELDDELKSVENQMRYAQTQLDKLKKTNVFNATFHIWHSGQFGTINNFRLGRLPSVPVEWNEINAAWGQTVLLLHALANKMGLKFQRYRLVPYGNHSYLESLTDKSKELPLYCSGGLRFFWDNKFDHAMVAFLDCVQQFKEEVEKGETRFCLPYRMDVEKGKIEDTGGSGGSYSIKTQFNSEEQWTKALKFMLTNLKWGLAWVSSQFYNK

effect of a mutation on the interaction	Variant
disrupting interaction strength	MSFTTRSTFSTNYRSLGSVQAPSYGARPVSSAAAVYAGAGGSGSRISVSRSTSFRGGMGSGGLATGIAGGLAGMGGIQNEKETMQSLNDRLASYLDRVRSLETENRRLESKIREHLEKKGPQVRDWSHYFKIIEDLRAQIFANTVDNARIVLQIDNARLAADDFRVKYETELAMRQSVENDIHGLRKVIDDTNITRLQLETEIEALKEELLFMKKNHEEEVKGLQAQIASSGLTVEVDAPKSQDLAKIMADIRAQYDELARKNREELDKYWSQQIEESTTVVTTQSAEVGAAETTLTELRRTVQSLEIDLDSMRNLKASLENSLREVEARYALQMEQLNGILLHLESELAQTRAEGQRQAQEYEALLNIKVKLEAEIATYRRLLEDGEDFNLGDALDSSNSMQTIQKTTTRRIVDGKVVSETNDTKVLRH [S34A]
